Experimental findings from the RNAGym collection of RNA variant scans (doi:10.1073/pnas.2313332121) are described below.

Variants at the floor of the assay were thinned out.

B1: TPR 5TU (parent)
chain: GGAUCUUCUCGAUCUAACAAAAAAGACAAAUCUGCCACAAAGCUUGAGAGCAUCUUCGGAUGCAGAGGCGGCAGCCUUCGGUGGCGCGAUAGCGCCAACGUUCUCAACUAUGACACGCAAAACGCGUGCUCCGUUGAAUGGAGUUUAUCAUG

In this data set the parent is B1. The experiment in a line: polymerase ribozyme fitness, log enrichment relative to wild type (log ratio); higher = more active; in vitro selection for triplet polymerase activity. Summed up:
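Fitness measures genotype enrichment against wild-type enrichment on a logarithmic scale, with inverse-variance-weighted averaging of replicates. The logarithm is base 2, and genotypes were kept only with ≥10 input reads and ≥1 read per output in Illumina sequencing. The sequenced libraries came from one triplicate in vitro selection round, including frozen incubation at −7 °C, of PCR-built, transcribed mutant libraries of each subunit of a heterodimeric triplet polymerase ribozyme.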
With GGAUCUUCUCGAUCUAACAAAAAAGACAAAUCUGCCACAAAGCUUGAGAGCAUCUUCGGAUGCAGAGGCGGCAGCCUUCGGUGGCGCGAUAGCGUCAACGUUCUCAACUAUGACACGCAAAACCCGUGCUCCGUUGAAUGGAGUUUAUCAUG [C95U G124C], the “polymerase ribozyme fitness (log ratio)” value was -0.723. For the variant GGAUCUUCUCGAUCUAACAAAAAAGACAAGUCUGCCACAAAGCUUGAGCGCAUCUUCGGAUGCAGAGGCGGCAGCCUUCGGUGGCGCUAUAGCGCCAACGUUCUCAACUGUGACACGCAAAACGCGUGCUCCGUUGAAUGGAGUUUAUCAUG [A30G A49C G88U A110G], the “polymerase ribozyme fitness (log ratio)” value is at most -4.2.

Turning to GGAUUUUCUCGAUCUAACAAAAAAGACAAAUCUGCCAUAAAGCUUGAGAGCAUCUUCGGAUGCAGAGGCGGCAGCCUUCGGUGGGGCGAUAGCGCCAACGCUCUCAACUAUGACACGCAAAACGCGUGCUCCGUUGAAUGGAGUUUAUCAUG [C5U C38U C85G U101C], the “polymerase ribozyme fitness (log ratio)” value is -1.38. To GGAUGUUCUCGAUCUGACAAUAAAGACAAAUCUGCCACAAAGCUUGAGAGCAUCUUCGGAUGCAGAGGCGGCAGCCUUCGGUGGCGCGAUAGUGCCAACGGUCUCAACUCUGACAUGCAAAACCCGUGCUCCGUUGAAUGGAGUUUAUCAUG [C5G A16G A21U C93U U101G A110C C116U G124C] belongs at most -4.2.

In the case of GGAUCUUCUCGAUCUAACAAAAAAGACAAAUCUGCCACAAAGCUUGAGAGCAUCUUCGGAUGCAGAGGCGGCAGCCUUCGGUGACGCGAUAGCGCCAACGUUCUCAACUAUGACACGCAAAACGCGUGCUCCCUUGAAUGGAGUUUAUCAUG [G84A G133C], the “polymerase ribozyme fitness (log ratio)” value was -1.78. On to GGAUCUUCUCGAUCUAACAAAAAAGACAAAUCUGCCACAAAGCUUGAGAGCAUCUUCGGAUGCAGAGGCGGCAGCCUUCGGUGGCGCGAUAGCGCCAACGUUCUCAACUAUGACACGCAAAACGAGUGCUCCGUUGAAUGGAGUUCAUCAUG [C125A U146C], for which the “polymerase ribozyme fitness (log ratio)” value was -0.394.

On to GGAUCUUCUCGAUCUAACAAAAAAGACAAAUCUGCCACAAAGCUUGAGAGCAUCUUCGGAUGCAGAGGCGGCAGCCUUCGGUGGGGCGAUAGAGCCAACGUUCUCAACUAUGACACGCAAAACGCGUGCUCCGUUGAAUGGAGUUUAUCAUG [C85G C93A], for which the “polymerase ribozyme fitness (log ratio)” value is at most -4.2.

For the variant GGAUCUUCUCGAUCUAACAAAAAAGACAAAUCUGCAACAAACCUUGAGAGCAUCAUCGGAUGCAGCGGUGGCAGCCUUCGGUGGCGCGAUAGCGCCAACGUUCUGAACUAUGACACGCAAAUCGCAUGCUCCGUUGAAUGGCGUUUAUCAUG [C36A G42C U55A A66C C69U C105G A122U G126A A142C], the “polymerase ribozyme fitness (log ratio)” value is at most -4.2. Then GGAUCUUCUCGAUCUAACAAAAAAGACAAAUCUGGCACAAAGCUUGAGAGCAUCUUCCGAUGCAGAGGCGGCAGCCUUCGGUGGCGCGAUAUCGCCAACGUUCUCAACUAUGACACGCAAAACGGGUGCUCCGUUGAAUGGAGUUUAUCUUG [C35G G58C G92U C125G A150U], with at most -4.2. With GGAUCUUCUCGAUCUAACAAAAAAGACAAAUCUGCCACAAAGCUUGUGAGCAUUUACGGAUGCAGAGGCGGCAGCCUUCGGUGCCGCGAUAGCGCCAAAGUUCUCAAUUAUGAUACGCAAAACGCUUGCUCCGUUGAAUGGAGUUUAUCAUG [A47U C54U U56A G84C C99A C108U C114U G126U], the “polymerase ribozyme fitness (log ratio)” value is at most -4.2. Then GGAUCUUCUCGAUCUAACAAAAAAGACAAAUCUGCCACAAAGCUUGAGAGCAUCUUCUGGUGCAGAGGCGGCAGCCUUCGGUGGCGCGAUAGCGCCAACGUUCUCAACUAUGACACGCAAAACGCGUGCUCCGUUGAAUGGAGUUUAUCAUG [G58U A60G], with 0.208; and GGAUCUUCUCGAUCUAACAAAAAAGACAAAUCUGCCACAAAGCUUGAGAGUAUCUUCGGAUGCAGAGGCGGCAGCCUUCGGUGGCGCGAUAGCGCCAACGUUCUCAACUAUGACACGCAAAACGCGUGCUCCGCUGAAUGGAGUUUAUCAUG [C51U U134C], with -0.745. To GGAUCUUCUCGAUCUAACAAAAAAGACAAAUCUGCCACAAAGCUUGAGAGCAUCUUCGGAUGCAGAGGCGGCAGCCUUCGGUGGCGCGAUAGCACCAACGGUCUCAACUAUGACACGCAAAACGCGUGCUCCGUUGAAUGGAGUUUAACAUG [G94A U101G U148A] belongs -4.03; to GGAUCUUCUCGAUCUAACAAAAAAGACAAAUCUGCCACAAAGCUAGAGAGCAUCAUCGGAUGCAGAGGCGGCAGCCUUCGGUGGCGCGAUAGCGCCAACGUUCUCAACUAUGACACGCAAAACGCGUGCUCCGUUGAAUGGAGUUUAUCAUG [U45A U55A], -2.95. For GGAUCUUCUCGAUCUAACAAUAAAGACAAAACUGCCACAAAGCUUGAGAGCAUCUUCGGAUGCAGAGGCGGCAGCCUUCGGUGGAGCGAUAGCGCCAACGUUCUCAACUAUGACACGCAAAACGCGUGCUCCGUUGAAUGGAGUUUAUCAUG [A21U U31A C85A], the “polymerase ribozyme fitness (log ratio)” value was -0.251. To GGAUCUUCUCGAUCUAACAAAAAAGACAAAUCUGUCACAAAGCUUGAGAGCUUCUUCGGAUGCAGAGGCGGCAGCCUUCGGUGGCGCGAUAGCGGCAACGUUCUCUGCUAUGACACGGAAAACGCGUGCUCCGUUGAAUGGAGUUUAUCAUG [C35U A52U C95G A106U A107G C118G] belongs at most -4.2; to GGAUCUUCUCGAUCUAACAAAAAAGACAAAUCUGCCACAAAGCUUGAGAGCAUCUUCGGAUGCAGAGGCGGCAGCCUUCGGUGGCGCGAUAGCGCCAACGUUCUCAACUAUGACACGCUAAACGCAUGCUCCGUUGAAUGGAGUUUAUCAUG [A119U G126A], 0.174. As to GGAUCUUCUCGAUCUAACAAAAAAGACAAAUCUGCCACAAAGCUUGAGAACAUCUUCGGAUGCAGAGGCGGCAGCCUUCGGUGGCGCGAUAGCGCCAACGUUCUCAACUAUGACACGCAAAACGCGUUCUCCGUUGAAUGGAGUUUAUCAUG [G50A G128U], the “polymerase ribozyme fitness (log ratio)” value is -3.21.

Take GGAUCUUCUCGAUCUAACAAAAAAGACAAAUCUGCCACAAAGCUUGAGAGCGUCUUCGGAUGCAGAGGCGGCAGCCUUCGGUGGCGCGAUAGCGGCAACGUUCUCAGCUAUGACACGCAGAACGCGUGCUCCGUUGAACGGAGUUUAUCAUG [A52G C95G A107G A120G U139C]: the “polymerase ribozyme fitness (log ratio)” value is -4.13.
